# Measured values published in patent US20220380801A1 (AstraZeneca / MedImmune, published 2022).
# T1: HCV NS3/4A PR K136D (S139A background), in the presence of simeprevir (Hepatitis C virus subtype 1a)
# T1 chain: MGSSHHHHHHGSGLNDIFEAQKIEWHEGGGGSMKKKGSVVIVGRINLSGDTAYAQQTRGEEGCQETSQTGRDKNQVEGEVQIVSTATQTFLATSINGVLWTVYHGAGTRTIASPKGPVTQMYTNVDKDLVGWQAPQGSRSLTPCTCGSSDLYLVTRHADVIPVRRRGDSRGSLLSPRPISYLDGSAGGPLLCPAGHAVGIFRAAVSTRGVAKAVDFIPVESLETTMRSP
# T2: HCV NS3/4A PR K136N (S139A background), in the presence of simeprevir (Hepatitis C virus subtype 1a)
# T2 chain: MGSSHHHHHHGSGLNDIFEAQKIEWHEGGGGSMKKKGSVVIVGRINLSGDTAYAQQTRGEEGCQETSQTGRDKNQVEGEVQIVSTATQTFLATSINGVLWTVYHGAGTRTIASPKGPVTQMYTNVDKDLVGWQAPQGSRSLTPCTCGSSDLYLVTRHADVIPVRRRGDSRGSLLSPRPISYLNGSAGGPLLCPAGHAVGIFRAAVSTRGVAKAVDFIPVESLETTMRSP
# T3: HCV NS3/4A PR D168E (S139A background), in the presence of simeprevir (Hepatitis C virus subtype 1a)
# T3 chain: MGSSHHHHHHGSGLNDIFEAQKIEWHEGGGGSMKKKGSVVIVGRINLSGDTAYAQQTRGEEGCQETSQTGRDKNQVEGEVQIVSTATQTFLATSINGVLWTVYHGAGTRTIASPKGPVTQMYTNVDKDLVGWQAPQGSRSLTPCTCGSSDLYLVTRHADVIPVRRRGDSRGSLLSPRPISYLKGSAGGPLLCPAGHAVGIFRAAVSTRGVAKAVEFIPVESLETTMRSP
# How the values were obtained:
# [1] = target: T4, HCV NS3/4A PR (S139A):simeprevir complex (Hepatitis C virus subtype 1a); assay: phage ELISA
# [2] = target: T4, HCV NS3/4A PR (S139A):simeprevir complex; assay: HTRF, with simeprevir
# [3] = target: T5, BSA, in the presence of simeprevir (UniProt P02769 25-607); assay: SPR Biacore 8K, PRSIM immobilised, BSA + 10 nM simeprevir
# T5 construct: also called BSA control
# [4] = target: T4, HCV NS3/4A PR (S139A):simeprevir complex; assay: SPR Biacore 8K, PRSIM immobilised, protease flowed with 10 nM simeprevir
# [5] = target: T1, HCV NS3/4A PR K136D (S139A background), …
# [6] = target: T2, HCV NS3/4A PR K136N (S139A background), …
# [7] = target: T3, HCV NS3/4A PR D168E (S139A background), …
# [8] = target: T1, HCV NS3/4A PR K136D (S139A background), …
# [9] = target: T2, HCV NS3/4A PR K136N (S139A background), …
# [10] = target: T3, HCV NS3/4A PR D168E (S139A background), …
# [11] = target: T1, HCV NS3/4A PR K136D (S139A background), …; assay: SPR Biacore 8K, with simeprevir
# [12] = target: T2, HCV NS3/4A PR K136N (S139A background), …; assay: SPR Biacore 8K, with simeprevir
# [13] = target: T3, HCV NS3/4A PR D168E (S139A background), …; assay: SPR Biacore 8K, with simeprevir
# [14] = target: T1, HCV NS3/4A PR K136D (S139A background), …; assay: SPR Biacore 8K, simeprevir titrated
# T5 sequence (P02769 25-607 limits assumed): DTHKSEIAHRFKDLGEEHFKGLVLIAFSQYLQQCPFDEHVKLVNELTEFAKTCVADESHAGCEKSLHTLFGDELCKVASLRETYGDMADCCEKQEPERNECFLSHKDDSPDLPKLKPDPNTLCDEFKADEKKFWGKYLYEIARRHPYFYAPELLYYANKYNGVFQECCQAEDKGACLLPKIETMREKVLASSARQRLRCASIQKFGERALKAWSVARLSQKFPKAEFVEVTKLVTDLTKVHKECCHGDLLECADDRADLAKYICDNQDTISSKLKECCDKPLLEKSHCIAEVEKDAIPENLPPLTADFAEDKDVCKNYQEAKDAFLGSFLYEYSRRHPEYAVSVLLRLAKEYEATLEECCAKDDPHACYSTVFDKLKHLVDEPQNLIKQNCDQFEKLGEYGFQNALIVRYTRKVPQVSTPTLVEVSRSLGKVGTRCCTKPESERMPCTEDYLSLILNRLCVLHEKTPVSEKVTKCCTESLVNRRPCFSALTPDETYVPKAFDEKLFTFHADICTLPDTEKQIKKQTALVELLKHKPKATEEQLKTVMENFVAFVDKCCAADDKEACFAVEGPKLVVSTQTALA
Binder,Binding fold change [(HCV protease + Simeprevir binding)/HCV protease alone] [1],HTRF max. signal (% delta F) [2],binding result [3],Kd [4],further results
PRSIM_47 (designed binder) RLDAPSQIEVKDVTDTTALITWSRPGVSIWYFELTYGIKDVPGDRTTIKLDYRSYYYSIGNLKPDTEYEVSLISGSYGLVGVRASNPAKITFKTGL,25.3 fold,1370 % delta F,no binding (tested: 20 nM),3.9 nM,
"PRSIM_04 (scFv, also called PRSIM_4) scFv: QVQLVQSGAEVKKPGSSVKVSCKASGGTFSSYAISWVRQAPGQGLEWMGGIIPIFGTANYAQKFQGRVTITADESTSTAYMELSSLRSEDTAVYYCARGMAHFYQFDLWGQGTLVTVSSGGGGSGGGGSGGGGSAQSVLTQPPSASGTPGQRVTISCSGSSSNIGSNTVNWYQQLPGTAPKLLIYSNNQRPSGVPDRFSGSKSGTSASLAISGLQSEDEADYYCAAGDHDHEHVVFGGGTKLTVL",,,no binding (tested: 20 nM),,
PRSIM_57 (scFv) scFv: QVQLVQSGAEVKKPGSSVKVSCKASGGTFSSYAISWVRQAPGQGLEWMGGIIPIFGTANYAQKFQGRVTITADESTSTAYMELSSLRSEDTAVYYCARHTNYITVFDYWGQGTLVTVSSGGGGSGGGGSGGGGSAQSVLTQPPSASGTPGQRVTISCSGSSSNIGSNTVNWYQQLPGTAPKLLIYSNNQRPSGVPDRFSGSKSGTSASLAISGLQSEDEADYYCAAWDHHWEQVVFGGGTKLTVL,,,no binding (tested: 20 nM),,
PRSIM_72 (scFv) scFv: QVQLVQSGAEVKKPGSSVKVSCKVSGGSFNNYGVSWVRQAPGQGLEWMGRIIPIRDTANYAQKFQGRVTITADTSTNIAYMELSGLRSDDTAVYYCARVLEDDFWGGYYDFYFYVMDVWGQGTLVTVSSGGGGSGGGGSGGGGSALSSELTQDPVVSVPLGQTARITCQGDSLTTYYATWYQQKPGQAPVLVLYNEHKRPSGISDRFSGSSAGDAASLTITDTQAEDEADYYCSSRDTGGKHVLFGGGTKLTVL,,,no binding (tested: 20 nM),,
PRSIM_23 (designed binder) RLDAPSQIEVKDVTDTTALITWVDPRYDDIWWFELTYGIKDVPGDRTTIKLYLNDPYYSIGNLKPDTEYEVSLISYTGDSYSRSGSNPAKITFKTGL,,,,,Simeprevir EC50 for induction of heterodimerisation [5]: 132 nM; Simeprevir EC50 for induction of heterodimerisation [6]: 8.06 nM; Simeprevir EC50 for induction of heterodimerisation [7]: 3.69 nM; Kd [8]: 33 nM; Kd [9]: 39.5 nM; kon [9]: 5.31e+08 M⁻¹ s⁻¹; Kd [10]: 14.7 nM; fold decrease of affinity against 'Wt' [11]: 6 to 7 fold; fold decrease of affinity against 'Wt' [12]: 6 to 7 fold; fold decrease of affinity against 'wt' protease [13]: ~3 fold; fold increase of the simeprevir EC50 against the wt complex [14]: ~30 fold
PRSIM_32 (designed binder) RLDAPSQIEVKDVTDTTALITWWSPRYYYASISGFELTYGIKDVPGDRTTIKLDYASNDYSIGNLKPDTEYEVSLISWNYGDWRYSSSNPAKITFKTGL,22.4 fold,1960 % delta F,no binding (tested: 20 nM),16 nM,
PRSIM_75 (scFv) scFv: EVQLVQSGAEVKKPGSSVKVSCKASGGSFNSYTLDWVRQAPGQGLEWMGGIIPVFGSPNYGQKFQGRVTITADESTSTAYMELSSLKSDDTAVYYCARGLVYQPLDSWGRGTLVTVSSGGGGSGGGGSGGGGSAQAVLTQPSSASGTPGQRVTISCSGSSSNIGSYTVNWYQQFPGTAPKLLIYSNTQRPSGVPDRFSGSKSGTSASLAISGLQSEDEADYYCAAWDDSLNGWVFGGGTKVTVL,,,no binding (tested: 20 nM),,
PRSIM_33 (designed binder) RLDAPSQIEVKDVTDTTALITWYPPGRWYDDIWYFELTYGIKDVPGDRTTIKLARGDDVYSIGNLKPDTEYEVSLISWGPDRGDRAGSNPAKITFKTGL,29.9 fold,1700 % delta F,no binding (tested: 20 nM),8.3 nM,koff [4]: 0.0303 s⁻¹; kon [4]: 3.65e+06 M⁻¹ s⁻¹
PRSIM_36 (designed binder) RLDAPSQIEVKDVTDTTALITWSWPRDDDYDIWYFELTYGIKDVPGDRTTIKLLNYASPYSIGNLKPDTEYEVSLISVVPDTYGRGTSNPAKITFKTGL,27.9 fold,1440 % delta F,no binding (tested: 20 nM),9.7 nM,koff [4]: 0.0498 s⁻¹; kon [4]: 5.15e+06 M⁻¹ s⁻¹
PRSIM_67 (scFv) scFv: EVQLVQSGAEVKKPGAAVRISCKTSGYVFTSYYVHWVRQAPGQGLEWMGVINPSGGNTNYAQKFQDRVTMTRDTSTTTVYMELSSLMFDDTAVYYCAKRDYGGPLANWGRGTLVTVSSGGGGSGGGGSGGGGSALSYELTQPPSVSEAPRQRVTISCSGSSSNIGNNAVNWYQQLPGKAPKLLIFYDDLLPSGVSDRFSGSKSGTSASLAISGLQSEDEADYYCAAWDDSLNGLVFGTGTKLTVL,,,no binding (tested: 20 nM),,
